Test results: patent US20020123082A1

Target: human p27, wild type (human) (UniProt P46527)
Assay: cell-based or functional assay

Chain of human p27, wild type (human) (P46527 whole entry): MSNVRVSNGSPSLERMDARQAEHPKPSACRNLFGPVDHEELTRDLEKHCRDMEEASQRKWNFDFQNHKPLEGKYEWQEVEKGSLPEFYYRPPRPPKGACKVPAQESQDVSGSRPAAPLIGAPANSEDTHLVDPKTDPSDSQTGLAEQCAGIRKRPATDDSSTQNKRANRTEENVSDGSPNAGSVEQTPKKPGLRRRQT

## (ΔF)Skp2, F-box deleted Skp2 mutant lacking residues 113-152 (from UniProt Q13309 1-112; Q13309 141-424)
  p27 half-life, pulse chase analysis in NIH-3T3 cells: 3 h
